This data set deals with the molecule itself. Put plainly: crystal structure.

B1: Pyrococcus furiosus Cmr4 (natural protein, UniProt Q8U1S9 1-295, looked up)
chain: MKAYLVGLYTLTPTHPGSGTELGVVDQPIQRERHTGFPVIWGQSLKGVLRSYLKLVEKVDEEKINKIFGPPTEKAHEQAGLISVGDAKILFFPVRSLKGVYAYVTSPLVLNRFKRDLELAGVKNFQTEIPELTDTAIASEEITVDNKVILEEFAILIQKDDKGILESVVKAIEQAFGNEMAEKIKGRIAIIPDDVFRDLVELSTEIVARIRINAETGTVETGGLWYEEYIPSDTLFYSLILVTPRAKDNDMALIKEVLGKINGKYLQIGGNETVGKGFVKVTLKEVTNNGGTHAK
Turning to B1, the binding result is given as “binds”.

Source of the values: publication PMC4333402 (Nucleic Acids Research, 2014).
